Measured values: patent publication US8580269B2, “Survivin peptides for autoimmune therapies” (Health Research, Inc., priority 2007, dated 2013)

Assays:
HLA-A*0201 [1] = molecular target: T1, HLA-A*0201 (Homo sapiens, UniProt P04439, D140Y/D185E/D98H/E176V/E277Q/G131W/G231S/I119V/I121R/I166T/I218V/L300P/L318F/N151K/N90K/P208A/P217A/Q86G/Q94H/R138H/R169H/T345S); assay: MHC class I peptide competitive displacement assay; conditions: displacement of labeled HPV18-27, FIG. 4A-B
Excerpt: (§1) FIGS. 4A, 4B and 4C provide a graphical representations of data from an analysis of HLA-A*0201 binding properties of survivin peptides. To obtain the data summarized in FIGS. 4A and 4B, survivin peptide epitopes were used in MHC class I peptide competitive displacement assays. IC50 represents the 50% inhibition concentration of survivin peptide required to displace a fluorescently labeled-known human MHC Class I ligand (HPV18-27). Positive control peptides (Flu & gp100) represent known immunogenic MHC class I ligands. Data represent mean fluorescence±S.E.M. of triplicate samples. FIG. 4C provides a graphical representation of data for specific HLA-A*0201 pentamer binding of wild type and altered survivin peptide epitopes.
(§2) As such, both peptides will bind H-2 Kb (the murine MHC class I counterpart) to a similar extent in mice. […] However, it is in administration to humans that the peptides of the invention are expected to display their enhanced potential, since the alteration of 57C to M alters the wild type peptide so that it contains a sequence that facilitates improved interaction with human MHC I. This is supported by the disparate MHC class I binding characteristics of the wild type and M57 peptides (FIG. 4A-C). As determined by competitive peptide binding assays, SVN53-67/M57 binds HLA-A*0201 approximately 12 fold stronger than the wild type SVN53-67 (FIG. 4A-B). […]

HLA-A*0201 [2] = molecular target: T1, HLA-A*0201; assay: survivin/MHC Class I-specific pentamer binding
Excerpt: as §1, §2

GL261 cells = assay: intracranial survival study in GL261 murine glioma model; format: in vivo, C57BL/6 mice; conditions: peptide loaded DC vaccine, GL261-C57BL/6 glioma model, FIG. 6
Protocol: FIG. 6 provides a graphical representation of data obtained from intracranial survival studies in a GL261 murine model utilizing altered peptides based on survivin amino acids 53-67. The peptides were administered using peptide loaded dendritic cell (DC) vaccines or as Keyhole Limpet Hemocyanin (KLH) conjugates. To obtain the data presented in FIG. 6, mice were intracranially implanted with 1×10^5 GL261 cells and were treated with survivin peptide DC vaccines. C57BL/6 mice were immunized with SVN57-64 based altered peptides, or OVA258-265 peptide loaded DC2.4 cells as well as a direct subcutaneous injection of 100 ug SVN 53-67/M57-KLH peptide in Incomplete Freund's Adjuvant (IFA) plus 100 ug GM-CSF. Vaccinations began 4 days after tumor cell implantation and were repeated (boosted) every 7 days to simulate a therapeutic setting. Survival was plotted according to Kaplan-Meier methods. Long-term survivors were confirmed tumor-free by high field strength MRI.

H2-K^b = molecular target: T2, H2-K^b (Mus musculus, UniProt P01901); assay: MHC class I peptide binding assay, upregulation of H2-K^b on RMA-S cells; format: cell-based, murine; conditions: 100 μM peptide at 37° C., FIG. 3
T2 construct: Upregulation of H2-K^b molecules on the surface of murine RMA-S cells; endogenous in cells; host or cells: murine RMA-S cells
T2 sequence (P01901 22-369): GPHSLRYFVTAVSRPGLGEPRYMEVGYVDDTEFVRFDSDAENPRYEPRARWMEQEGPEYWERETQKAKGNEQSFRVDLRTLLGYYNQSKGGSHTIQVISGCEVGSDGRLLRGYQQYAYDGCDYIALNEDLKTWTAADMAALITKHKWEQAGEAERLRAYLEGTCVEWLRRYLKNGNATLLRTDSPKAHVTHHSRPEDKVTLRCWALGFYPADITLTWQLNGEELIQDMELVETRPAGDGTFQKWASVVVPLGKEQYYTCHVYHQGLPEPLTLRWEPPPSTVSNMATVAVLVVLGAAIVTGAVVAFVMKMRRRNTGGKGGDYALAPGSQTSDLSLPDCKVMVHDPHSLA
T2 sequence (P01887 21-119 partner): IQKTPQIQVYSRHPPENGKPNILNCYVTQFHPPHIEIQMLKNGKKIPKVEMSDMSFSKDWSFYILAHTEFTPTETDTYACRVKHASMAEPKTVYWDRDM
Protocol: To obtain the data presented in FIG. 3, survivin peptide epitopes were used in conventional MHC class I peptide binding assays. Mean fluorescence in FIG. 3 represents binding of SVN peptides to H2-K^b. Upregulation of H2-K^b molecules on the surface of murine RMA-S cells which are deficient in the expression of surface MHC class I molecules was used to determine actual survivin peptide binding in vitro. Data presented in FIG. 3 represent the binding of 100 μM peptide at 37° C.

## DLAQMFFCFKELEGW (SVN53-67/M57 with C to M change)
HLA-A*0201 [1]
  HLA-A*0201 binding relative to wild type SVN53-67: approximately 12 fold
HLA-A*0201 [2]; in situ binding assays for HLA-A*0201, FIG. 2 and FIG. 4C
  increase of MHC I binding relative to the wild type sequence: approximately 73 fold

## M F F C F K E L (MFFCFKEL; SVN-57-64/M57 mutant peptide)
GL261 cells
  survival compared to wild type peptide: enhances survival over the wild type peptide

## SVN56-64/M57: core peptide, survivin 56-64 with the C>M alteration at position 57 (QMFFCFKEL)
HLA-A*0201 [2]; pentamer, FIG. 4C
  HLA-A*0201 binding relative to wild type SVN56-64: approximately 73 fold

## T L G E F L K L [SVN-97]
H2-K^b
  binding of SVN peptides to H2-K^b (mean fluorescence): less than SVN 57-64 wt, and considerably less than SVN 57-64/M57
